{
  "source": "the supplement of paper PMC7125110",
  "parents": {"B1": {"name": "glmS ribozyme (parent)", "chain": "AUAAAAGCGCCAGAACUACAGAAAUGUAGUUGACGAGGAGGAGGUUUAUCGAAUUUUCGGCGGAUGCCUCCAAA"}},
  "conditions_in_all_cases": "with glucosamine-6-phosphate",
  "key": {"[1]": {"variants_of": "B1", "assay": "self-cleavage kobs at 40 uM GlcN6P; higher = faster cleavage; RNA array", "summary_of_the_method": "(§1)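 Using a hybridised Cy3 probe at 37 °C, barcoded ribozyme variants transcribed in situ by E. coli RNA polymerase on sequenced MiSeq chips were monitored across tiles imaged over ~14 h. The flow contained glucosamine-6-phosphate from 40 μM to 10 mM in HEPES/KCl/Mg(OAc)2 buffer. Signals were normalised to baseline and to non-cleaving reference variants before per-tile medians were fit to one- or two-exponential decays to yield kobs. Weighted Michaelis–Menten fits across concentrations gave kcat and KM.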"}, "[2]": {"variants_of": "B1", "assay": "self-cleavage kobs at 160 uM GlcN6P; higher = faster cleavage; RNA array", "summary_of_the_method": "as §1"}, "[3]": {"variants_of": "B1", "assay": "self-cleavage kobs at 640 uM GlcN6P; higher = faster cleavage; RNA array", "summary_of_the_method": "as §1"}, "[4]": {"variants_of": "B1", "assay": "self-cleavage kobs at 2500 uM GlcN6P; higher = faster cleavage; RNA array", "summary_of_the_method": "as §1"}, "[5]": {"variants_of": "B1", "assay": "self-cleavage kobs at 10000 uM GlcN6P; higher = faster cleavage; RNA array", "summary_of_the_method": "as §1"}},
  "note": "± gives the standard error. Fewer inactive variants are shown than the library holds.",
  "data": [
    {"variant": "C8A G29C G35A C67G", "values": [
      {"measurement": "self-cleavage kobs at 40 uM GlcN6P", "setting": "[1]", "result": "< 1e-05", "unit": "s⁻¹"}
    ]},
    {"variant": "G9A C16U", "values": [
      {"measurement": "self-cleavage kobs at 40 uM GlcN6P", "setting": "[1]", "result": "< 1e-05", "unit": "s⁻¹"},
      {"measurement": "self-cleavage kobs at 160 uM GlcN6P", "setting": "[2]", "result": "< 1e-05", "unit": "s⁻¹"},
      {"measurement": "self-cleavage kobs at 640 uM GlcN6P", "setting": "[3]", "result": "< 1e-05", "unit": "s⁻¹"},
      {"measurement": "self-cleavage kobs at 2500 uM GlcN6P", "setting": "[4]", "result": "< 1e-05", "unit": "s⁻¹"},
      {"measurement": "self-cleavage kobs at 10000 uM GlcN6P", "setting": "[5]", "result": "3.09e-05 ± 1.5e-05", "unit": "s⁻¹"}
    ]},
    {"variant": "C8U G63C", "values": [
      {"measurement": "self-cleavage kobs at 40 uM GlcN6P", "setting": "[1]", "result": "< 1e-05", "unit": "s⁻¹"},
      {"measurement": "self-cleavage kobs at 160 uM GlcN6P", "setting": "[2]", "result": "< 1e-05", "unit": "s⁻¹"},
      {"measurement": "self-cleavage kobs at 640 uM GlcN6P", "setting": "[3]", "result": "< 1e-05", "unit": "s⁻¹"},
      {"measurement": "self-cleavage kobs at 2500 uM GlcN6P", "setting": "[4]", "result": "< 1e-05", "unit": "s⁻¹"},
      {"measurement": "self-cleavage kobs at 10000 uM GlcN6P", "setting": "[5]", "result": "< 1e-05", "unit": "s⁻¹"}
    ]},
    {"variant": "C8A U47G", "values": [
      {"measurement": "self-cleavage kobs at 40 uM GlcN6P", "setting": "[1]", "result": "< 1e-05", "unit": "s⁻¹"}
    ]},
    {"variant": "C8U C16U A52G", "values": [
      {"measurement": "self-cleavage kobs at 40 uM GlcN6P", "setting": "[1]", "result": "< 1e-05", "unit": "s⁻¹"}
    ]},
    {"variant": "C8A A15U A36G", "values": [
      {"measurement": "self-cleavage kobs at 40 uM GlcN6P", "setting": "[1]", "result": "< 1e-05", "unit": "s⁻¹"}
    ]},
    {"variant": "C8G C50G C67A", "values": [
      {"measurement": "self-cleavage kobs at 40 uM GlcN6P", "setting": "[1]", "result": "0.000144 ± 2.5e-05", "unit": "s⁻¹"},
      {"measurement": "self-cleavage kobs at 10000 uM GlcN6P", "setting": "[5]", "result": "0.000113 ± 1.8e-05", "unit": "s⁻¹"}
    ]},
    {"variant": "G7U G9U", "values": [
      {"measurement": "self-cleavage kobs at 40 uM GlcN6P", "setting": "[1]", "result": "< 1e-05", "unit": "s⁻¹"},
      {"measurement": "self-cleavage kobs at 160 uM GlcN6P", "setting": "[2]", "result": "< 1e-05", "unit": "s⁻¹"},
      {"measurement": "self-cleavage kobs at 640 uM GlcN6P", "setting": "[3]", "result": "< 1e-05", "unit": "s⁻¹"},
      {"measurement": "self-cleavage kobs at 2500 uM GlcN6P", "setting": "[4]", "result": "< 1e-05", "unit": "s⁻¹"},
      {"measurement": "self-cleavage kobs at 10000 uM GlcN6P", "setting": "[5]", "result": "< 1e-05", "unit": "s⁻¹"}
    ]},
    {"variant": "C8G C61U G66A C70U", "values": [
      {"measurement": "self-cleavage kobs at 40 uM GlcN6P", "setting": "[1]", "result": "< 1e-05", "unit": "s⁻¹"}
    ]},
    {"variant": "C8U A33C", "values": [
      {"measurement": "self-cleavage kobs at 40 uM GlcN6P", "setting": "[1]", "result": "< 1e-05", "unit": "s⁻¹"},
      {"measurement": "self-cleavage kobs at 160 uM GlcN6P", "setting": "[2]", "result": "< 1e-05", "unit": "s⁻¹"},
      {"measurement": "self-cleavage kobs at 640 uM GlcN6P", "setting": "[3]", "result": "< 1e-05", "unit": "s⁻¹"},
      {"measurement": "self-cleavage kobs at 2500 uM GlcN6P", "setting": "[4]", "result": "< 1e-05", "unit": "s⁻¹"},
      {"measurement": "self-cleavage kobs at 10000 uM GlcN6P", "setting": "[5]", "result": "< 1e-05", "unit": "s⁻¹"}
    ]},
    {"variant": "C8U A33G", "values": [
      {"measurement": "self-cleavage kobs at 40 uM GlcN6P", "setting": "[1]", "result": "< 1e-05", "unit": "s⁻¹"},
      {"measurement": "self-cleavage kobs at 160 uM GlcN6P", "setting": "[2]", "result": "< 1e-05", "unit": "s⁻¹"},
      {"measurement": "self-cleavage kobs at 640 uM GlcN6P", "setting": "[3]", "result": "< 1e-05", "unit": "s⁻¹"},
      {"measurement": "self-cleavage kobs at 10000 uM GlcN6P", "setting": "[5]", "result": "< 1e-05", "unit": "s⁻¹"}
    ]},
    {"variant": "C8G C58G G60A", "values": [
      {"measurement": "self-cleavage kobs at 40 uM GlcN6P", "setting": "[1]", "result": "< 1e-05", "unit": "s⁻¹"},
      {"measurement": "self-cleavage kobs at 10000 uM GlcN6P", "setting": "[5]", "result": "< 1e-05", "unit": "s⁻¹"}
    ]},
    {"variant": "G7U G29C C61U", "values": [
      {"measurement": "self-cleavage kobs at 40 uM GlcN6P", "setting": "[1]", "result": "< 1e-05", "unit": "s⁻¹"}
    ]},
    {"variant": "C8G G37C", "values": [
      {"measurement": "self-cleavage kobs at 40 uM GlcN6P", "setting": "[1]", "result": "< 1e-05", "unit": "s⁻¹"},
      {"measurement": "self-cleavage kobs at 640 uM GlcN6P", "setting": "[3]", "result": "< 1e-05", "unit": "s⁻¹"},
      {"measurement": "self-cleavage kobs at 10000 uM GlcN6P", "setting": "[5]", "result": "< 1e-05", "unit": "s⁻¹"}
    ]},
    {"variant": "C8A G40C", "values": [
      {"measurement": "self-cleavage kobs at 40 uM GlcN6P", "setting": "[1]", "result": "< 1e-05", "unit": "s⁻¹"},
      {"measurement": "self-cleavage kobs at 160 uM GlcN6P", "setting": "[2]", "result": "< 1e-05", "unit": "s⁻¹"},
      {"measurement": "self-cleavage kobs at 640 uM GlcN6P", "setting": "[3]", "result": "< 1e-05", "unit": "s⁻¹"},
      {"measurement": "self-cleavage kobs at 2500 uM GlcN6P", "setting": "[4]", "result": "< 1e-05", "unit": "s⁻¹"},
      {"measurement": "self-cleavage kobs at 10000 uM GlcN6P", "setting": "[5]", "result": "< 1e-05", "unit": "s⁻¹"}
    ]},
    {"variant": "G7U G32U U49A", "values": [
      {"measurement": "self-cleavage kobs at 40 uM GlcN6P", "setting": "[1]", "result": "< 1e-05", "unit": "s⁻¹"},
      {"measurement": "self-cleavage kobs at 640 uM GlcN6P", "setting": "[3]", "result": "< 1e-05", "unit": "s⁻¹"},
      {"measurement": "self-cleavage kobs at 2500 uM GlcN6P", "setting": "[4]", "result": "< 1e-05", "unit": "s⁻¹"},
      {"measurement": "self-cleavage kobs at 10000 uM GlcN6P", "setting": "[5]", "result": "< 1e-05", "unit": "s⁻¹"}
    ]},
    {"variant": "C8U G13C", "values": [
      {"measurement": "self-cleavage kobs at 40 uM GlcN6P", "setting": "[1]", "result": "< 1e-05", "unit": "s⁻¹"},
      {"measurement": "self-cleavage kobs at 160 uM GlcN6P", "setting": "[2]", "result": "< 1e-05", "unit": "s⁻¹"},
      {"measurement": "self-cleavage kobs at 640 uM GlcN6P", "setting": "[3]", "result": "< 1e-05", "unit": "s⁻¹"},
      {"measurement": "self-cleavage kobs at 10000 uM GlcN6P", "setting": "[5]", "result": "< 1e-05", "unit": "s⁻¹"}
    ]},
    {"variant": "C8U A12G C50U C68G", "values": [
      {"measurement": "self-cleavage kobs at 40 uM GlcN6P", "setting": "[1]", "result": "3.9e-05 ± 1.6e-05", "unit": "s⁻¹"},
      {"measurement": "self-cleavage kobs at 160 uM GlcN6P", "setting": "[2]", "result": "0.000221 ± 8.4e-05", "unit": "s⁻¹"},
      {"measurement": "self-cleavage kobs at 640 uM GlcN6P", "setting": "[3]", "result": "0.00022 ± 8.6e-05", "unit": "s⁻¹"},
      {"measurement": "self-cleavage kobs at 2500 uM GlcN6P", "setting": "[4]", "result": "0.000476 ± 0.00018", "unit": "s⁻¹"},
      {"measurement": "self-cleavage kobs at 10000 uM GlcN6P", "setting": "[5]", "result": "6.84e-05 ± 1.7e-05", "unit": "s⁻¹"}
    ]},
    {"variant": "C8G C67A", "values": [
      {"measurement": "self-cleavage kobs at 40 uM GlcN6P", "setting": "[1]", "result": "< 1e-05", "unit": "s⁻¹"},
      {"measurement": "self-cleavage kobs at 160 uM GlcN6P", "setting": "[2]", "result": "< 1e-05", "unit": "s⁻¹"},
      {"measurement": "self-cleavage kobs at 640 uM GlcN6P", "setting": "[3]", "result": "< 1e-05", "unit": "s⁻¹"},
      {"measurement": "self-cleavage kobs at 2500 uM GlcN6P", "setting": "[4]", "result": "< 1e-05", "unit": "s⁻¹"},
      {"measurement": "self-cleavage kobs at 10000 uM GlcN6P", "setting": "[5]", "result": "< 1e-05", "unit": "s⁻¹"}
    ]},
    {"variant": "C8G U30A U31C", "values": [
      {"measurement": "self-cleavage kobs at 40 uM GlcN6P", "setting": "[1]", "result": "< 1e-05", "unit": "s⁻¹"},
      {"measurement": "self-cleavage kobs at 10000 uM GlcN6P", "setting": "[5]", "result": "< 1e-05", "unit": "s⁻¹"}
    ]},
    {"variant": "G7U U54G C70G C71U", "values": [
      {"measurement": "self-cleavage kobs at 40 uM GlcN6P", "setting": "[1]", "result": "7.3e-05 ± 2.8e-05", "unit": "s⁻¹"},
      {"measurement": "self-cleavage kobs at 10000 uM GlcN6P", "setting": "[5]", "result": "5.65e-05 ± 2.5e-05", "unit": "s⁻¹"}
    ]},
    {"variant": "C8A G13U G41C U55C U65A U69G", "values": [
      {"measurement": "self-cleavage kobs at 40 uM GlcN6P", "setting": "[1]", "result": "< 1e-05", "unit": "s⁻¹"}
    ]}
  ]
}
